Assay results: US20250262210A1 (TRUSTEES OF COLUMBIA UNIVERSITY IN THE CITY OF NEW YORK, published 2025)

T1: LZTR1 R810W-FLAG (human, UniProt Q8N653 1-840)
T1 construct: Stably expressed in U87 cells by lentivirus; also called LZTR1-FLAG-R810W; LZTR1 RW; not shown: FLAG tag
T1 sequence (looked up): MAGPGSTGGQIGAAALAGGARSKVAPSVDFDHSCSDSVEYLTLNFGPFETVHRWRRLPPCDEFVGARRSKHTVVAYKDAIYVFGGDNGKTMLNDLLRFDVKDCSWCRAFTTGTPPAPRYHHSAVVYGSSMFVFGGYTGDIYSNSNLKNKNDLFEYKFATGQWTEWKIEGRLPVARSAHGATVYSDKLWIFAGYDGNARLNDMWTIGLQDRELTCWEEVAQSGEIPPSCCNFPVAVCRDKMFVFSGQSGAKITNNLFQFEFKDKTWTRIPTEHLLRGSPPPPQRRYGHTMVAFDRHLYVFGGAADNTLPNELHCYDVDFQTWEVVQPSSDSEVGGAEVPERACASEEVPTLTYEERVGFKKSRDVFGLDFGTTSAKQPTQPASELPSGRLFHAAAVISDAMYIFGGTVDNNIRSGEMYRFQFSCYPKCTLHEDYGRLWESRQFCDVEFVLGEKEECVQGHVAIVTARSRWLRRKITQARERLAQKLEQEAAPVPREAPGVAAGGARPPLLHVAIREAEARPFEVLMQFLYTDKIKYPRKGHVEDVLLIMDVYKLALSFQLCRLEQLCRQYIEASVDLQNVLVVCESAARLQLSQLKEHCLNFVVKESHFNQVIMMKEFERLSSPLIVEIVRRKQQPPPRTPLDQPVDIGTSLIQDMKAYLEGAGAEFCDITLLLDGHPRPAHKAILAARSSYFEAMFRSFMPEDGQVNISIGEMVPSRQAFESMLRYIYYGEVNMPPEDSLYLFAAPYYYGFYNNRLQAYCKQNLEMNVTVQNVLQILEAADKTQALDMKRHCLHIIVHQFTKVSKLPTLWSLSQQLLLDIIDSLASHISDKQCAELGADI

T2: LZTR1-FLAG (human, UniProt Q8N653 1-840)
T2 construct: Expressed in HEK 293T, HeLa or U87 cells; used as cell lysate; also called LZTR1 wild type-FLAG; LZTR1 WT; not shown: FLAG tag at the C-terminus
T2 sequence (looked up): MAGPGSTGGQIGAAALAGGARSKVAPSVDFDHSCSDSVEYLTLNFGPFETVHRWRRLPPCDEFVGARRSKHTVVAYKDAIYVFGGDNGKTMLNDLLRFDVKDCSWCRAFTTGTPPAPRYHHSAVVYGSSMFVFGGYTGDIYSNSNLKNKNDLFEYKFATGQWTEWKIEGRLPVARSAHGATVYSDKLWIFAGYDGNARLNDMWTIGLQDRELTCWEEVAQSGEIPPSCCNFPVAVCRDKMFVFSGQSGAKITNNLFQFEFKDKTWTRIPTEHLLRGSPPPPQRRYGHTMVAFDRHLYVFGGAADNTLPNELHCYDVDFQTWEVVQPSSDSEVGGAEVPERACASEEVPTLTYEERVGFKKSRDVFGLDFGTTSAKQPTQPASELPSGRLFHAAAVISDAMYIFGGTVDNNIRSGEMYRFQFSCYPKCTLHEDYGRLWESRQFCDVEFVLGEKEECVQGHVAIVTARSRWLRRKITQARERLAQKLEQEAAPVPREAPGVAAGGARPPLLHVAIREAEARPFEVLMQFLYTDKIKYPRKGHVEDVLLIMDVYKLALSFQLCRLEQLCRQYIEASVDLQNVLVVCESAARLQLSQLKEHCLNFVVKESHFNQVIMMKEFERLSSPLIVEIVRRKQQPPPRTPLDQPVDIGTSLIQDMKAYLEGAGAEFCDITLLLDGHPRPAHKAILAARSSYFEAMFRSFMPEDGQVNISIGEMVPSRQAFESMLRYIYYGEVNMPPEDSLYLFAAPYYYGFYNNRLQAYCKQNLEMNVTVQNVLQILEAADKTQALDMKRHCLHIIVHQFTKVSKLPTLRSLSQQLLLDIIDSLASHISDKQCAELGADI


Columns and labels:
LZTR1 R810W-FLAG = target: T1, LZTR1 R810W-FLAG; experiment: IP/MS, LZTR1 R810W-FLAG, U87
Summary of the method: (§1)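 Read-out: spectral counts from LC-MS/MS (Orbitrap Fusion) after MaxQuant identification. Variable modifications were Met oxidation, protein N-terminal acetylation and N/Q deamidation.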

LZTR1-FLAG = target: T2, LZTR1-FLAG; experiment: IP/MS, LZTR1 wild type-FLAG, U87
Summary of the method: as §1

binding result (LZTR1 R810W-FLAG) | binding result (LZTR1-FLAG) | Binder
binds | binds | SYDE1 (other, human, UniProt Q6ZW31 1-735, looked up) MAEPLLRKTFSRLRGREKLPRKKSDAKERGHPAQRPEPSPPEPEPQAPEGSQAGAEGPSSPEASRSPARGAYLQSLEPSSRRWVLGGAKPAEDTSLGPGVPGTGEPAGEIWYNPIPEEDPRPPAPEPPGPQPGSAESEGLAPQGAAPASPPTKASRTKSPGPARRLSIKMKKLPELRRRLSLRGPRAGRERERAAPAGSVISRYHLDSSVGGPGPAAGPGGTRSPRAGYLSDGDSPERPAGPPSPTSFRPYEVGPAARAPPAALWGRLSLHLYGLGGLRPAPGATPRDLCCLLQVDGEARARTGPLRGGPDFLRLDHTFHLELEAARLLRALVLAWDPGVRRHRPCAQGTVLLPTVFRGCQAQQLAVRLEPQGLLYAKLTLSEQQEAPATAEPRVFGLPLPLLVERERPPGQVPLIIQKCVGQIERRGLRVVGLYRLCGSAAVKKELRDAFERDSAAVCLSEDLYPDINVITGILKDYLRELPTPLITQPLYKVVLEAMARDPPNRVPPTTEGTRGLLSCLPDVERATLTLLLDHLRLVSSFHAYNRMTPQNLAVCFGPVLLPARQAPTRPRARSSGPGLASAVDFKHHIEVLHYLLQSWPDPRLPRQSPDVAPYLRPKRQPPLHLPLADPEVVTRPRGRGGPESPPSNRYAGDWSVCGRDFLPCGRDFLSGPDYDHVTGSDSEDEDEEVGEPRVTGDFEDDFDAPFNPHLNLKDFDALILDLERELSKQINVCL
binds | binds | TRIM47 (other, human, UniProt Q96LD4 1-638, looked up) MDGSGPFSCPICLEPLREPVTLPCGHNFCLACLGALWPHRGASGAGGPGGAARCPLCQEPFPDGLQLRKNHTLSELLQLRQGSGPGSGPGPAPALAPEPSAPSALPSVPEPSAPCAPEPWPAGEEPVRCDACPEGAALPAALSCLSCLASFCPAHLGPHERSPALRGHRLVPPLRRLEESLCPRHLRPLERYCRAERVCLCEACAAQEHRGHELVPLEQERALQEAEQSKVLSAVEDRMDELGAGIAQSRRTVALIKSAAVAERERVSRLFADAAAALQGFQTQVLGFIEEGEAAMLGRSQGDLRRQEEQRSRLSRARQNLSQVPEADSVSFLQELLALRLALEDGCGPGPGPPRELSFTKSSQAVRAVRDMLAVACVNQWEQLRGPGGNEDGPQKLDSEADAEPQDLESTNLLESEAPRDYFLKFAYIVDLDSDTADKFLQLFGTKGVKRVLCPINYPLSPTRFTHCEQVLGEGALDRGTYYWEVEIIEGWVSMGVMAEDFSPQEPYDRGRLGRNAHSCCLQWNGRSFSVWFHGLEAPLPHPFSPTVGVCLEYADRALAFYAVRDGKMSLLRRLKASRPRRGGIPASPIDPFQSRLDSHFAGLFTHRLKPAFFLESVDAHLQIGPLKKSCISVLKRR
binds | binds | TBK1 (other, human, UniProt Q9UHD2 1-729, looked up) MQSTSNHLWLLSDILGQGATANVFRGRHKKTGDLFAIKVFNNISFLRPVDVQMREFEVLKKLNHKNIVKLFAIEEETTTRHKVLIMEFCPCGSLYTVLEEPSNAYGLPESEFLIVLRDVVGGMNHLRENGIVHRDIKPGNIMRVIGEDGQSVYKLTDFGAARELEDDEQFVSLYGTEEYLHPDMYERAVLRKDHQKKYGATVDLWSIGVTFYHAATGSLPFRPFEGPRRNKEVMYKIITGKPSGAISGVQKAENGPIDWSGDMPVSCSLSRGLQVLLTPVLANILEADQEKCWGFDQFFAETSDILHRMVIHVFSLQQMTAHKIYIHSYNTATIFHELVYKQTKIISSNQELIYEGRRLVLEPGRLAQHFPKTTEENPIFVVSREPLNTIGLIYEKISLPKVHPRYDLDGDASMAKAITGVVCYACRIASTLLLYQELMRKGIRWLIELIKDDYNETVHKKTEVVITLDFCIRNIEKTVKVYEKLMKINLEAAELGEISDIHTKLLRLSSSQGTIETSLQDIDSRLSPGGSLADAWAHQEGTHPKDRNVEKLQVLLNCMTEIYYQFKKDKAERRLAYNEEQIHKFDKQKLYYHATKAMTHFTDECVKKYEAFLNKSEEWIRKMLHLRKQLLSLTNQCFDIEEEVSKYQEYTNELQETLPQKMFTASSGIKHTMTPIYPSSNTLVEMTLGMKKLKEEMEGVVKELAENNHILERFGSLTMDGGLRNVDCL
binds | binds | UBXN6 (other, human, UniProt Q9BZV1 1-441, looked up) MKKFFQEFKADIKFKSAGPGQKLKESVGEKAHKEKPNQPAPRPPRQGPTNEAQMAAAAALARLEQKQSRAWGPTSQDTIRNQVRKELQAEATVSGSPEAPGTNVVSEPREEGSAHLAVPGVYFTCPLTGATLRKDQRDACIKEAILLHFSTDPVAASIMKIYTFNKDQDRVKLGVDTIAKYLDNIHLHPEEEKYRKIKLQNKVFQERINCLEGTHEFFEAIGFQKVLLPAQDQEDPEEFYVLSETTLAQPQSLERHKEQLLAAEPVRAKLDRQRRVFQPSPLASQFELPGDFFNLTAEEIKREQRLRSEAVERLSVLRTKAMREKEEQRGLRKYNYTLLRVRLPDGCLLQGTFYARERLGAVYGFVREALQSDWLPFELLASGGQKLSEDENLALNECGLVPSALLTFSWDMAVLEDIKAAGAEPDSILKPELLSAIEKLL
binds | binds | TRAPPC12 (other, human, UniProt Q8WVT3 1-735, looked up) MEDAGGGEETPAPEAPHPPQLAPPEEQGLLFQEETIDLGGDEFGSEENETASEGSSPLADKLNEHMMESVLISDSPNSEGDAGDLGRVRDEAEPGGEGDPGPEPAGTPSPSGEADGDCAPEDAAPSSGGAPRQDAAREVPGSEAARPEQEPPVAEPVPVCTIFSQRAPPASGDGFEPQMVKSPSFGGASEASARTPPQVVQPSPSLSTFFGDTAASHSLASDFFDSFTTSAFISVSNPGAGSPAPASPPPLAVPGTEGRPEPVAMRGPQAAAPPASPEPFAHIQAVFAGSDDPFATALSMSEMDRRNDAWLPGEATRGVLRAVATQQRGAVFVDKENLTMPGLRFDNIQGDAVKDLMLRFLGEKAAAKRQVLNADSVEQSFVGLKQLISCRNWRAAVDLCGRLLTAHGQGYGKSGLLTSHTTDSLQLWFVRLALLVKLGLFQNAEMEFEPFGNLDQPDLYYEYYPHVYPGRRGSMVPFSMRILHAELQQYLGNPQESLDRLHKVKTVCSKILANLEQGLAEDGGMSSVTQEGRQASIRLWRSRLGRVMYSMANCLLLMKDYVLAVEAYHSVIKYYPEQEPQLLSGIGRISLQIGDIKTAEKYFQDVEKVTQKLDGLQGKIMVLMNSAFLHLGQNNFAEAHRFFTEILRMDPRNAVANNNAAVCLLYLGKLKDSLRQLEAMVQQDPRHYLHESVLFNLTTMYELESSRSMQKKQALLEAVAGKEGDSFNTQCLKLA
binds | binds | TELO2 (other, human, UniProt Q9Y4R8 1-837, looked up) MEPAPSEVRLAVREAIHALSSSEDGGHIFCTLESLKRYLGEMEPPALPREKEEFASAHFSPVLRCLASRLSPAWLELLPHGRLEELWASFFLEGPADQAFLVLMETIEGAAGPSFRLMKMARLLARFLREGRLAVLMEAQCRQQTQPGFILLRETLLGKVVALPDHLGNRLQQENLAEFFPQNYFRLLGEEVVRVLQAVVDSLQGGLDSSVSFVSQVLGKACVHGRQQEILGVLVPRLAALTQGSYLHQRVCWRLVEQVPDRAMEAVLTGLVEAALGPEVLSRLLGNLVVKNKKAQFVMTQKLLFLQSRLTTPMLQSLLGHLAMDSQRRPLLLQVLKELLETWGSSSAIRHTPLPQQRHVSKAVLICLAQLGEPELRDSRDELLASMMAGVKCRLDSSLPPVRRLGMIVAEVVSARIHPEGPPLKFQYEEDELSLELLALASPQPAGDGASEAGTSLVPATAEPPAETPAEIVDGGVPQAQLAGSDSDLDSDDEFVPYDMSGDRELKSSKAPAYVRDCVEALTTSEDIERWEAALRALEGLVYRSPTATREVSVELAKVLLHLEEKTCVVGFAGLRQRALVAVTVTDPAPVADYLTSQFYALNYSLRQRMDILDVLTLAAQELSRPGCLGRTPQPGSPSPNTPCLPEAAVSQPGSAVASDWRVVVEERIRSKTQRLSKGGPRQGPAGSPSRFNSVAGHFFFPLLQRFDRPLVTFDLLGEDQLVLGRLAHTLGALMCLAVNTTVAVAMGKALLEFVWALRFHIDAYVRQGLLSAVSSVLLSLPAARLLEDLMDELLEARSWLADVAEKDPDEDCRTLALRALLLLQRLKNRLLPPASP
